Experimental data published in publication PMC2642718.

Molecular target: CD43 (leukosialin) on the surface of primary human neutrophils (human (endogenous in primary neutrophils)) (UniProt P16150)
UniProt P16150, sequence (P16150 20-400): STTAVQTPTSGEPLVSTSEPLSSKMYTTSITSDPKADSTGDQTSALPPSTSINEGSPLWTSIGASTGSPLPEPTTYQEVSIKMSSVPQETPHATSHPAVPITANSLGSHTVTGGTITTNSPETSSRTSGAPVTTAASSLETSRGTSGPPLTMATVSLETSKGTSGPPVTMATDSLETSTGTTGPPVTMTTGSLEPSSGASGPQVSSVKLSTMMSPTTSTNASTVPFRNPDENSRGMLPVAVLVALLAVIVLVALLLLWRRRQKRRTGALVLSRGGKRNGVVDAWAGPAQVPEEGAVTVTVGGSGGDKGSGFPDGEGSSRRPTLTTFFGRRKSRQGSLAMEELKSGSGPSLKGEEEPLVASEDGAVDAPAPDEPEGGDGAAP

Substance | migration of human neutrophils across Fbg-coated transwell filters toward fMLP, 25 µg/mL protein (fold reduction)
StcE (Secreted protease of C1-esterase inhibitor), recombinant purified protein (from UniProt O82882 36-898) (enzyme) | 1.7
StcE E435D, proteolytically inactive point mutant (from UniProt O82882 36-898) (enzyme) | 1.7
